Data: article PMC1410913 (Nucleic Acids Research, 2006)

B1: wild-type FokI restriction endonuclease (enzyme, UniProt P14870 1-579, looked up)
chain: MVSKIRTFGWVQNPGKFENLKRVVQVFDRNSKVHNEVKNIKIPTLVKESKIQKELVAIMNQHDLIYTYKELVGTGTSIRSEAPCDAIIQATIADQGNKKGYIDNWSSDGFLRWAHALGFIEYINKSDSFVITDVGLAYSKSADGSAIEKEILIEAISSYPPAIRILTLLEDGQHLTKFDLGKNLGFSGESGFTSLPEGILLDTLANAMPKDKGEIRNNWEGSSDKYARMIGGWLDKLGLVKQGKKEFIIPTLGKPDNKEFISHAFKITGEGLKVLRRAKGSTKFTRVPKRVYWEMLATNLTDKEYVRTRRALILEILIKAGSLKIEQIQDNLKKLGFDEVIETIENDIKGLINTGIFIEIKGRFYQLKDHILQFVIPNRGVTKQLVKSELEEKKSELRHKLKYVPHEYIELIEIARNSTQDRILEMKVMEFFMKVYGYRGKHLGGSRKPDGAIYTVGSPIDYGVIVDTKAYSGGYNLPIGQADEMQRYVEENQTRNKHINPNEWWKVYPSSVTEFKFLFVSGHFKGNYKAQLTRLNHITNCNGAVLSVEELLIGGEMIKAGTLTLEEVRRKFNNGEINF

Key:
[1] = biological target: the molecule itself; experiment: single-turnover enzyme kinetics
[2] = biological target: B1; experiment: steady-state enzyme kinetics

Kd [2] | Binder | Kd [1]
– | B1 | 99 ± 19 nM
166 ± 73 nM | N13Y variant of the FokI endonuclease (enzyme, UniProt P14870 1-579, looked up) MVSKIRTFGWVQYPGKFENLKRVVQVFDRNSKVHNEVKNIKIPTLVKESKIQKELVAIMNQHDLIYTYKELVGTGTSIRSEAPCDAIIQATIADQGNKKGYIDNWSSDGFLRWAHALGFIEYINKSDSFVITDVGLAYSKSADGSAIEKEILIEAISSYPPAIRILTLLEDGQHLTKFDLGKNLGFSGESGFTSLPEGILLDTLANAMPKDKGEIRNNWEGSSDKYARMIGGWLDKLGLVKQGKKEFIIPTLGKPDNKEFISHAFKITGEGLKVLRRAKGSTKFTRVPKRVYWEMLATNLTDKEYVRTRRALILEILIKAGSLKIEQIQDNLKKLGFDEVIETIENDIKGLINTGIFIEIKGRFYQLKDHILQFVIPNRGVTKQLVKSELEEKKSELRHKLKYVPHEYIELIEIARNSTQDRILEMKVMEFFMKVYGYRGKHLGGSRKPDGAIYTVGSPIDYGVIVDTKAYSGGYNLPIGQADEMQRYVEENQTRNKHINPNEWWKVYPSSVTEFKFLFVSGHFKGNYKAQLTRLNHITNCNGAVLSVEELLIGGEMIKAGTLTLEEVRRKFNNGEINF | –
